The values that follow come from patent US20170157245A1, “TREATMENT OF GASTRIC CANCER” (OncoMed Pharmaceutlcals, Inc., priority 2014, published 2017).

One test has as its system xenograft tumor models. As to conditions: Hoey et al., 2009, U.S. Pat. No. 7,750,124; cited from earlier work.
The subject of test [1] is OMP-STM1 gastric tumor xenografts. In words: Inhibition of OMP-STM1 gastric tumor growth in vivo. The conditions noted are these: subcutaneous xenograft in NOD/SCID mice, 3 mg/kg weekly intraperitoneally for 4 weeks, given plus anti-mVEGF/anti-mDLL4 bispecific antibody, compared with control, anti-DLL4 and anti-VEGF antibodies. The method, then:
FIG. 1. […] OMP-STM1 gastric tumor cells were injected subcutaneously into NOD/SCID mice. Mice were treated with control antibody (-[…]-), anti-hDLL4 antibody 21M18 (demcizumab) plus anti-mDLL4 antibody (-▪-), anti-VEGF antibody bevacizumab plus anti-mVEGF antibody (-⋄-), or anti-VEGF/anti-DLL4 bispecific antibody 219R45-MB-21M83 (305B83) plus anti-mDLL4/anti-mVEGF antibody (-▾-). Data is shown as tumor volume […] over days post-treatment. Antibodies were administered intraperitoneally at a dose of 3 mg/kg once a week. * indicates p<0.05 vs control antibody as assessed by two-way ANOVA.
Single cell suspensions of OMP-STM1 gastric tumor xenografts (50,000 cells) were injected subcutaneously into the flanks of 6-8 week old NOD/SCID mice. Tumors were allowed to grow for 34 days until they reached an average volume of 110 mm^3. The mice were randomized (n=8 per group) and treated with anti-hDLL4 antibody 21M18 (demcizumab) plus anti-mDLL4, anti-hVEGF antibody bevacizumab plus anti-mVEGF, anti-hVEGF/anti-hDLL4 bispecific antibody 219R45-MB-21R83 (305B83) plus an anti-mVEGF/anti-mDLL4 bispecific antibody, or control antibody. Antibodies were dosed at 3 mg/kg weekly by intraperitoneal injection for 4 weeks. Tumor growth was monitored and tumor volumes were measured with electronic calipers at the indicated time points. Data are expressed as mean±S.E.M.

Substitutions are numbered along the chain they refer to.

B1: demcizumab: anti-DLL4 antibody, demcizumab (also known as OMP-21M18); heavy chain variable region SEQ ID NO:9 (antibody, chains of the INN, looked up, V domains shown)
VH: QVQLVQSGAEVKKPGASVKISCKASGYSFTAYYIHWVKQAPGQGLEWIGYISSYNGATNYNQKFKGRVTFTTDTSTSTAYMELRSLRSDDTAVYYCARDYDYDVGMDYWGQGTLVTVSS
VL: DIVMTQSPDSLAVSLGERATISCRASESVDNYGISFMKWFQQKPGQPPKLLIYAASNQGSGVPDRFSGSGSGTDFTLTISSLQAEDVAVYYCQQSKEVPWTFGGGTKVEIK
Regarding B1, in the test on xenograft tumor models, the “frequency of cancer stem cells” value is on record as “reduce the frequency of cancer stem cells” and the tumor growth inhibition entry is recorded as “inhibit tumor growth”.

B2: 219R45-MB-21R83: anti-hVEGF/anti-hDLL4 bispecific antibody; heavy chains SEQ ID NO:7 and SEQ ID NO:62, two light chains SEQ ID NO:8 (antibody, chains of the INN, looked up, V domains shown)
VH: B1 VH with S53N, G56R
VL: B1 VL
VH2: QVQLVQSGAEVKKPGASVKVSCKASGYTFTNYWMHWVRQAPGQGLEWMGDINPSNGRTSYKEKFKRRVTLSVDKSSSTAYMELSSLRSEDTAVYFCTIHYDDKYYPLMDYWGQGTLVTVSS
VL2: B1 VL
B2: the “inhibition of OMP-STM1 gastric tumor growth (tumor volume)” value in test [1] (listed as 219R45-MB-21M83, 3 mg/kg) was “Inhibition of gastric tumor growth in vivo”; in test [1] (listed as bispecific anti-VEGF/anti-DLL4 antibody, 3 mg/kg) it was “greater inhibition of OMP-STM1 gastric tumor growth than either anti-DLL4 antibodies alone or anti-VEGF antibodies alone”.
